US20210324080A1 (JIANGSU HUAIYU PHARMACEUTICAL, published 2021)
Changes are numbered by the printed parent chain.

T1: human CTLA-4 (Y201V), full length, on transfected cells (human, UniProt P16410 36-223)
T1 construct: whole, on cells; also called hCTLA-4; HEK293-hCTLA-4 (Y201V)
T1 sequence (looked up): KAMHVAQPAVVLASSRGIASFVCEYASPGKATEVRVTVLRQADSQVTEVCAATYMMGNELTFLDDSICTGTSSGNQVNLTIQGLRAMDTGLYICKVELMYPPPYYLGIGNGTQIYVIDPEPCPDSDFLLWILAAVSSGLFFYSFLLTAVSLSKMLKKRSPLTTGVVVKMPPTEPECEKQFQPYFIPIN

T2: CTLA-4-hFc (immunogen A; hFc-labeled CTLA-4 extracellular domain protein) (human, UniProt P16410 36-161)
T2 construct: range 36-161; Made in HEK293 cells, purified on protein A; also called CLTA-4-hFc; CTLA-4 protein; not shown: human IgG Fc fragment (hFc) of the pCpC vector
T2 sequence (looked up): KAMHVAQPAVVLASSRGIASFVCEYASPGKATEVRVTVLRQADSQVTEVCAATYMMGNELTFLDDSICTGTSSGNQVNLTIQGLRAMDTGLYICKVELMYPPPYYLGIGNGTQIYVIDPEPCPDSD

T3: CTLA-4 on human T lymphocytes (PBMC, CD3+ T cells) (human, UniProt P16410 36-223)
T3 sequence (looked up): T1 sequence (looked up) with V166Y

B1: 97A8D1 (chimeric antibody purified from hybridoma supernatant) (antibody, V domains shown)
VH: QVQLVESGGGVVQPGRSLRLSCVASGFTFNNYGMNWVRQAPGKGLEWVAVIWYGGRNKFYADSVKGRFTISRDNSKNTLYLEMNSLRAEDTAVYYCARADWGGWFDPWGQGTLVTVSS
VL: EIVLTQSPGTLSLSPGERATLSCRASQSVSSTYLAWYQQKPGQAPRLLIHGAFSRATGIPDRFSGSGSGPDFTLTISRLEPEDFAVYYCQQYGTSPFTFGPGTKVDIK
notes: also called mAb49; mAb049
B2: 92C8B6 (chimeric antibody purified from hybridoma supernatant) (antibody, V domains shown)
VH: QVQLVESGGGVVQPGRSLRLSCAASGFTFSNFGMHWVRQAPGKGLEWVAVIWYDGSNKYYADSVKGRFTISRDNSKNTLFLQMNGLRAEDTAVYYCAKGGILMAGTLDYWGQGTLVTVSS
VL: DIQMTQSPSSLSASVGDRVTITCRASQSVSTYLNWYQQKPGKAPKLLIYAASSFQSGVPSRFSGSGSGTDFTLTISSLQPEDFATYFCQQSYSTPFTFGPGTKVDIK
notes: also called mAb42; mAb042
B3: 31C12F3 (chimeric antibody purified from hybridoma supernatant) (antibody, V domains shown)
VH: QVQLVESGGGVVQPGRSLILSCAASGFTFSSYGMHWVRQAPGKGLEWVAVVWYDGSNKYYADSVKGRFTISRDNSKNTLYLQMSSLRAEDTAVYYCARGGIVVPGLFEYWGQGSLVTVSS
VL: B2 VL with T20A, A25T, V29I, T31N, Y32L, K45E, A51P, S63R, F87Y
notes: also called mAb010

Tests used:
[1] = molecular target: T1, human CTLA-4 (Y201V), full length, on …; test: FACS, CHOK1-hCTLA-4 cells
[2] = molecular target: T2, CTLA-4-hFc (immunogen A; hFc-labeled …); test: competition ELISA: CTLA-4-hFc coated, antibody titrated, blocked ligand biotin-labeled B7.1-hFc, HRP-avidin, A450, inhibition (%)
Description: (§1) CTLA-4 extracellular domain protein (CTLA-4-hFc) was diluted with PBS to a final concentration of 1.0 μg/mL, and then added to a 96-well ELISA plate as 100 μl per well. The plate was covered with a plastic film and incubated overnight at 4° C. The plate was washed twice with plate washing solution [PBS containing 0.01% (v/v) Tween 20] on the next day, and added with blocking solution [PBS containing 0.01% (v/v) Tween 20 and 1% (w/w) BSA] and blocked at room temperature for 2 hours. […] After 2 hours, the plate was washed 3 times with a plate washing solution [PBS containing 0.01% (v/v) Tween 20]. HRP (horseradish peroxidase) labeled avidin diluent (purchased from Sigma) was added 100 microliters per well, and after the plate was incubated for 2 hours at 37° C., it was washed with plate washing solution [PBS containing 0.01% (v/v) Tween 20] for 3 times. […] TMB substrate was added to each well. After incubated at room temperature for 30 minutes, the plate was added with […] stop solution (1.0N HCl) to each well. An ELISA plate reader (SpectraMax 384plus, Molecular Device) was used to read the A450 nm value.

[3] = molecular target: T2, CTLA-4-hFc (immunogen A; hFc-labeled …); test: ELISA, coated CTLA-4-hFc, competitor biotin-B7.1-hFc
Description: as §1

[4] = molecular target: T2, CTLA-4-hFc (immunogen A; hFc-labeled …); test: ELISA, coated CTLA-4-hFc, competitor biotin-B7.2-hFc
Description: as §1

[5] = molecular target: T2, CTLA-4-hFc (immunogen A; hFc-labeled …); test: competition ELISA: CTLA-4-hFc coated, antibody titrated, blocked ligand biotin-labeled B7.2-hFc, HRP-avidin, A450, inhibition (%)
Description: as §1

[6] = molecular target: T4, monkey CTLA-4, full length, on transfected HEK293 cells (monkey); test: FACS, 293F-cCTLA-4 cells
T4 construct: whole, on cells; also called cCTLA-4; HEK293-cCTLA-4
Source text: The pIRES plasmid with the monkey-derived CTLA-4 full-length gene was transfected into the HEK293 cell line to construct a HEK293 stable cell line containing monkey CTLA-4 (herein referred to as HEK293-cCTLA-4 stable cell line), wherein the database accession number of the monkey CTLA-4 nucleotide sequence is XM_005574014.1. The HEK293-hCTLA-4 stable cell line and HEK293-cCTLA-4 stable cell line were expanded in a T-75 cell culture flask to a 90% confluence. The medium was aspirated, and the cells were washed with HBSS buffer (Hanks Balanced Salt Solution, purchased from Invitrogen) twice, then treated with an enzyme-free cell dissociation fluid (Versene solution, purchased from Life technology) and the cells were collected. The cells were washed with HBSS buffer twice. After counted, the cells were diluted with HBSS buffer to 2×10⁶ cells per ml, added with 1% goat serum blocking solution, wherein the percentage was the mass percantage. Cells were incubated on ice for 30 minutes, then washed twice with HBSS buffer by centrifugation. The collected cells were suspended in the FACS buffer (HBSS containing 1% BSA, wherein the percentage was the mass percantage) to 2×10⁶ cells/ml, added as 100 microliters per well to a 96-well FACS reaction plate, added with 100 microliters per well of the purified CTLA-4 antibody sample to be tested, incubated on ice for 2 hours. The plate was washed twice with the FACS buffer by centrifugation, added with 100 microliters of fluorescent (Alexa 488)-labeled secondary antibodies (purchased from Invitrogen) per well, and incubated on ice for 1 hour. The plate was washed 3 times with FACS buffer by centrifugation, added with 100 μl fixative solution [4% (v/v) Paraformaldehyde] per well to suspend the cells. 10 minutes later, it was washed 2 times with FACS buffer by centrifugation. The cells were suspended with 100 microliters of FACS buffer, FACS (FACS Calibur, purchased from BD) was used for detection and the results were analyzed.

[7] = molecular target: T3, CTLA-4 on human T lymphocytes (PBMC, …); test: cell-based or functional assay

Binder	MFI at 0.07 nM [1]	MFI at 0.67 nM [1]	MFI at 6.67 nM [1]	MFI at 66.67 nM [1]	IC50 (read off the curve) [2] [nM]	Inhibition rate (%) at 0.00091 nM [3] [%]	Inhibition rate (%) at 0.091 nM [3] [%]	Inhibition rate (%) at 0.274 nM [3] [%]	Inhibition rate (%) at 0.823 nM [3] [%]	Inhibition rate (%) at 2.5 nM [3] [%]	Inhibition rate (%) at 7.4 nM [3] [%]	Inhibition rate (%) at 22.2 nM [3] [%]	Inhibition rate (%) at 66.7 nM [3] [%]	Inhibition rate (%) at 0.00091 nM [4] [%]	Inhibition rate (%) at 0.091 nM [4] [%]	Inhibition rate (%) at 0.274 nM [4] [%]	Inhibition rate (%) at 0.823 nM [4] [%]	Inhibition rate (%) at 2.5 nM [4] [%]	Inhibition rate (%) at 7.4 nM [4] [%]	Inhibition rate (%) at 22.2 nM [4] [%]	further results
B1	20	116	395	617	~0.5	0	-1	4	78	93	91	91	97	0	-21	6	76	91	95	94	Inhibition rate (%) at 66.7 nM [4]: 95%; IC50 (read off the curve) [5]: ~0.5 nM; MFI at 0.000128 nM [6]: 2.4; MFI at 0.0128 nM [6]: 23.1; MFI at 0.064 nM [6]: 67.2; MFI at 0.32 nM [6]: 225; MFI at 1.6 nM [6]: 513; MFI at 8 nM [6]: 754; MFI at 40 nM [6]: 910; MFI at 200 nM [6]: 831; IL-2 (pg/mL) at 0.016 ug/mL, SEB PBMC test [7]: 336 pg/mL; IL-2 (pg/mL) at 0.08 ug/mL, SEB PBMC test [7]: 742 pg/mL; IL-2 (pg/mL) at 2 ug/mL, SEB PBMC test [7]: 4950 pg/mL; IL-2 (pg/mL) at 4 ug/mL (so in the source), SEB PBMC test [7]: 1520 pg/mL; IL-2 (pg/mL) at 10 ug/mL, SEB PBMC test [7]: 7980 pg/mL
B2	29	154	420	603	~0.2	0	8	55	93	94	97	96	97	0	23	60	90	92	95	94	Inhibition rate (%) at 66.7 nM [4]: 95%; IC50 (read off the curve) [5]: ~0.2 nM; MFI at 0.000128 nM [6]: 2.3; MFI at 0.0128 nM [6]: 22.2; MFI at 0.064 nM [6]: 67.7; MFI at 0.32 nM [6]: 208; MFI at 1.6 nM [6]: 465; MFI at 8 nM [6]: 722; MFI at 40 nM [6]: 800; MFI at 200 nM [6]: 711; IL-2 (pg/mL) at 0.016 ug/mL, SEB PBMC test [7]: 355 pg/mL; IL-2 (pg/mL) at 0.08 ug/mL, SEB PBMC test [7]: 830 pg/mL; IL-2 (pg/mL) at 2 ug/mL, SEB PBMC test [7]: 3740 pg/mL; IL-2 (pg/mL) at 4 ug/mL (so in the source), SEB PBMC test [7]: 1420 pg/mL; IL-2 (pg/mL) at 10 ug/mL, SEB PBMC test [7]: 6120 pg/mL
B3	27.6	95	386	469	~0.4	0	1.7	25.7	72.2	87.7	89.6	93.6	94.4	0	-8.8	17.1	60.2	83.6	89.9	92.1	Inhibition rate (%) at 66.7 nM [4]: 92.8%; IC50 (read off the curve) [5]: ~0.5 nM; MFI at 0.000128 nM [6]: 2.4; MFI at 0.0128 nM [6]: 34.3; MFI at 0.064 nM [6]: 97.7; MFI at 0.32 nM [6]: 261; MFI at 1.6 nM [6]: 455; MFI at 8 nM [6]: 654; MFI at 40 nM [6]: 712; MFI at 200 nM [6]: 668
